Assay results as given in the supplement of paper PMC7877785.
± gives the uncertainty stated by the source.

Experiment: self-splicing fitness, log relative to wild type (ln ratio); higher = more splicing; Tetrahymena group I intron in knt gene, E. coli kanamycin selection, DiMSum; sequences stand for … in CUCUCU…GGAGGGAAAAGUUAUCAGGCAUGCACCUGGUAGCUAGUCUUUAAACCAAUAGAUUGCAUCGGUUUAAAAGGCAAGACCGUCAAAUUGCGGGAAAGGGGUCAACAGCCGUUCAGUACCAAGUCUCAGGGGAAACUUUGAGAUGGCCUUGCAAAGGGUAUGGUAAUAAGCUGACGGACAUGGUCCUAACCACGCAGCCAAGUCCUAAGUCAACAGAUCUUCUGUUGAUAUGGAUGCAGUUCACAGACUAAAUGUCGGUCGGGGAAGAUGUAUUCUUCUCAUAAGAUAUAGUCGGACCUCUCCUUAAUGGGAGCUAGCGGAUGAAGUGAUGCAACACUGGAGCCGCUGGGAACUAAUUUGUAUGCGAAAGUAUAUUGAUUAGUUUUGGAGUACUCGUGGUCG
How it was run: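 Six replicate transformations of E. coli BL21(DE3) with a pET-22b(+) library were grown overnight at 37°C or 30°C. The library randomised all eight P1ex-region intron nucleotides, the intron lying in the knt kanamycin-resistance gene, and plates were LB agar with or without 25 μg/mL kanamycin plus 100 μg/mL carbenicillin, 50 μM IPTG and 0.2% rhamnose. Pooled colonies were amplicon-sequenced on an Illumina HiSeq 2500, and fitness is the DiMSum error-weighted combination of wild-type-normalised replicate fold changes, kanamycin versus none.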

| Sequence | self-splicing fitness (ln) (30 °C) | self-splicing fitness (ln) (37 °C) |
| --- | --- | --- |
| CCAAAGCAAUAUUACGGUUU | -3.21 ± 0.12 | -2.34 ± 0.15 |
| CCAAAGCAAUAUUACGUAUG | -0.512 ± 0.059 | -0.574 ± 0.093 |
| CCAAAGCAAUAUUACGUCGG | -3.29 ± 0.18 | -2.23 ± 0.2 |
| CCAAAGCAAUAUUACGUCUA | -3.06 ± 0.23 | -2.06 ± 0.21 |
| CCAAAGCAAUAUUACGUGCA | -2.81 ± 0.18 | -2.9 ± 0.23 |
| CCAAAGCAAUAUUACGUUCA | -2.59 ± 0.17 | -3.38 ± 0.33 |
| CCAAAGCAAUAUUACGUUGC | -3.4 ± 0.15 | -2.12 ± 0.17 |
| CCAAAGCAAUAUUACGUUUU | -3.91 ± 0.14 | -2.75 ± 0.17 |
| CCACAGCAAUAUUACGAACA | -2.78 ± 0.24 | -2.33 ± 0.29 |
| CCACAGCAAUAUUACGAAUA | -2.57 ± 0.15 | -2.59 ± 0.19 |
| CCACAGCAAUAUUACGAAUC | -2.71 ± 0.18 | -2.3 ± 0.3 |
| CCACAGCAAUAUUACGAAUU | -3.64 ± 0.18 | -2.39 ± 0.17 |
| CCACAGCAAUAUUACGACCG | -0.115 ± 0.064 | -0.00245 ± 0.083 |
| CCACAGCAAUAUUACGACUA | -3.08 ± 0.25 | -2.88 ± 0.29 |
| CCACAGCAAUAUUACGAUAU | -3.48 ± 0.2 | -2.01 ± 0.15 |
| CCACAGCAAUAUUACGCAAC | -2.45 ± 0.36 | -1.79 ± 0.33 |
| CCACAGCAAUAUUACGCAUG | -1.64 ± 0.073 | -0.648 ± 0.067 |
| CCACAGCAAUAUUACGCUGC | -3.06 ± 0.17 | -2.72 ± 0.28 |
| CCACAGCAAUAUUACGCUUU | -4.05 ± 0.25 | -2.18 ± 0.19 |
| CCACAGCAAUAUUACGGAUG | -1.97 ± 0.082 | -1.19 ± 0.1 |
| CCACAGCAAUAUUACGGAUU | -3.49 ± 0.11 | -3.12 ± 0.15 |

| Sequence | self-splicing fitness (ln) (30 °C) | self-splicing fitness (ln) (37 °C) |
| --- | --- | --- |
| CCACAGCAAUAUUACGGCAG | -1.16 ± 0.072 | -0.579 ± 0.085 |
| CCACAGCAAUAUUACGGCGU | -3.24 ± 0.21 | -2.75 ± 0.31 |
| CCACAGCAAUAUUACGGGAU | -4.56 ± 0.26 | -2.33 ± 0.15 |
| CCACAGCAAUAUUACGGGGU | -3.71 ± 0.098 | -2.53 ± 0.11 |
| CCACAGCAAUAUUACGGUCC | -2.75 ± 0.32 | -2.32 ± 0.32 |
| CCACAGCAAUAUUACGGUGA | -0.943 ± 0.06 | -0.339 ± 0.062 |
| CCACAGCAAUAUUACGGUGC | -4.03 ± 0.19 | -2.97 ± 0.2 |
| CCACAGCAAUAUUACGGUGU | -2.98 ± 0.12 | -3.03 ± 0.2 |
| CCACAGCAAUAUUACGUCCU | -3.44 ± 0.27 | -1.76 ± 0.19 |
| CCACAGCAAUAUUACGUGCU | -3.61 ± 0.17 | -2.88 ± 0.17 |
| CCACAGCAAUAUUACGUGGU | -4.13 ± 0.14 | -3.65 ± 0.17 |
| CCACAGCAAUAUUACGUUCC | -4.24 ± 0.24 | -2.84 ± 0.27 |
| CCACAGCAAUAUUACGUUUC | -4.16 ± 0.22 | -2.44 ± 0.24 |
| CCAGAGCAAUAUUACGAAGG | -3.47 ± 0.19 | -1.92 ± 0.22 |
| CCAGAGCAAUAUUACGACUA | -2.95 ± 0.28 | -2.47 ± 0.38 |
| CCAGAGCAAUAUUACGAGCC | – | -1.84 ± 0.42 |
| CCAGAGCAAUAUUACGAGGC | -2.82 ± 0.38 | -1.34 ± 0.41 |
| CCAGAGCAAUAUUACGAGUA | -2.97 ± 0.23 | -3.39 ± 0.28 |
| CCAGAGCAAUAUUACGAUAC | -2.7 ± 0.2 | -1.71 ± 0.21 |
| CCAGAGCAAUAUUACGAUGA | -1.88 ± 0.14 | -0.518 ± 0.11 |
| CCAGAGCAAUAUUACGCACG | -2.06 ± 0.22 | 0.34 ± 0.17 |
